# Where a chain is given by its changes, count along the chain named. In names and notes the source's numbering stands.
# T1: human CD96 short isoform v2 expressed on CHO cells (human, UniProt P40200 22-585)
# T1 construct: also called hCD96v2; CD96v2; not shown: C-terminal HA-tag
# T1 sequence: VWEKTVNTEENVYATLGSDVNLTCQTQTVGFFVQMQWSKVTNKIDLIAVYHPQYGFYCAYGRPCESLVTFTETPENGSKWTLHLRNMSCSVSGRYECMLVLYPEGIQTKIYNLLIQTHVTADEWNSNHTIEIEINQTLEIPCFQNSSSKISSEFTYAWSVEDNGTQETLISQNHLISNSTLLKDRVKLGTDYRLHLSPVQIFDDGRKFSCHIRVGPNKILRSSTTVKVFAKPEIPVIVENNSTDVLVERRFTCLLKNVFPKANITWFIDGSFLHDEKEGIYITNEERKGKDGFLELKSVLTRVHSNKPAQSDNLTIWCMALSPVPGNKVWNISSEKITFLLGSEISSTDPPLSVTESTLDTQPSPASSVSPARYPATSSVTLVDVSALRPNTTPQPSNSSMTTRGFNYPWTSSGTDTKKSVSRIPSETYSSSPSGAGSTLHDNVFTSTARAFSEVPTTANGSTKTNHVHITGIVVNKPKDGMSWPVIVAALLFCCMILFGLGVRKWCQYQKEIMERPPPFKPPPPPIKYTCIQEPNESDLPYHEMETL
# T2: mouse CD96 expressed on CHO cells (mouse, UniProt Q3U0X8 22-602)
# T2 construct: whole, on cells; also called mCD96
# T2 sequence (looked up): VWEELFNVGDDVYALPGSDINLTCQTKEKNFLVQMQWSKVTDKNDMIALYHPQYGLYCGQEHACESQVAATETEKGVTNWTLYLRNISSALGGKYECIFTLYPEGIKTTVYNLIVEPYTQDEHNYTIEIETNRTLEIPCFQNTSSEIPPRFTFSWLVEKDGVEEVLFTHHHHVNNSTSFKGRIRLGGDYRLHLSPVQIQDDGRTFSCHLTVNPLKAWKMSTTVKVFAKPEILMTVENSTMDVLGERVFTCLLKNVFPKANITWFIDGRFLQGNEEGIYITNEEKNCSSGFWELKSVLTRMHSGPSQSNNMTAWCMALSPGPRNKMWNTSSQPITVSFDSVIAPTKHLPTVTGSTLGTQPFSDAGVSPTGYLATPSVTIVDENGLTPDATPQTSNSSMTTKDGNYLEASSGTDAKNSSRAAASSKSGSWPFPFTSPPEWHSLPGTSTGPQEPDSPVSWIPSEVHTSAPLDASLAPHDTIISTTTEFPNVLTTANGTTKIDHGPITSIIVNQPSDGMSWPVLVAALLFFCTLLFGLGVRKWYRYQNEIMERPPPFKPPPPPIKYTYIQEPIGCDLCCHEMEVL
# T3: rhesus CD96 transiently expressed on CHO cells (rhesus, UniProt P40200 22-585 (human entry))
# T3 construct: also called rhesus CD96, short isoform
# T3 chain: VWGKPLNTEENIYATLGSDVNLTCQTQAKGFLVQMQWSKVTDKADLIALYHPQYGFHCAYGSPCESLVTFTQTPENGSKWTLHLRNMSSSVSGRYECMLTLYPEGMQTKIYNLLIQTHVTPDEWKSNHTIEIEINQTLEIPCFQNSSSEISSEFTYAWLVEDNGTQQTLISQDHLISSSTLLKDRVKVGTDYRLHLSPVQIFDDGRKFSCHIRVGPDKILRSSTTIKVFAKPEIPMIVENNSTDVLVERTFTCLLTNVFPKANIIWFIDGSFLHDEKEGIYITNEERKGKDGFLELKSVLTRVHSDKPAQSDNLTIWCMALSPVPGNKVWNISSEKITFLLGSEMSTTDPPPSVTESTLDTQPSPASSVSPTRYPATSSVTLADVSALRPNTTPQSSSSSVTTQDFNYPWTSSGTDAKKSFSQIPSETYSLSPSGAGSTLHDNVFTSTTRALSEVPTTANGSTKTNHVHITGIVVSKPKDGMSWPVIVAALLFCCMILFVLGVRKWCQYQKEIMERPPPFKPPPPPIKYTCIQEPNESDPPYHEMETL
# B1: BL006-9-15G1-15K5 (antibody, V domains shown)
# VH: QAYLQQSGAELVRPGASVKMSCKASGYTFTSYNMHWVKQTPRQGLEWIGAVIPGNGDSFYNQKFKGKATLTVDKSSSTAYMQLSSLTSEDSAVYFCGRSSSGCIAYWGQGTLVTVSA
# VL: DIVLTQSPASLAVSLGQRATISCRVSGSVDYDGDSYMNWYQQKPGQPPKLLIYAASNLESGIPARFSGSGSETDFTLNIHPVEEEDAATYYCLQSNEAPWTFGGGTKVEIK
# notes: Recombinant mIgG2a/kappa (also made as mIgG2a-D265A); also called candidate NO 12
# B2: BL006-4-31G1-31K3 (antibody, V domains shown)
# VH: QVQLQQSGPELVKPGASVKISCKTSGFTFTDYYINWVKQRPGQGLEWIGWIFPGSGSSFYSEIFKGQATLTVDKSSSTAYMLLSSLTSEDSAVYFCARRNYYGYGAYAMDYWGQGTSVTVSS
# VL: DIQMNQSPSSLSASLGDTITITCRASQSINFWLSWYQQKPGNIPKLLIYKASNLHTGVPSRFSGSGSGTDFTLTISSLQPEDIATYYCLQGQSYPLTFGGGTKLEIK
# notes: Recombinant mIgG2a/kappa (also made as mIgG2a-D265A); also called candidate NO 10
# B3: BL006-4-52G6-52K7 (antibody, V domains shown)
# VH: QVQLQQPGAELVKPGASVKLSCKASGYSFTSYWMHWVKQRPGQGLEWIGQIDPSDSYTNYNQKFKGKATLTVDKSSSTAYMQLSSLTSEDSAVYYCASGNYGPYLGNYFDYWGQGTTLTVPS
# VL: DIVMSQSPSSLVVSVGEKVTMSCKSSQSLLHSTNQKNYLAWYQQKPGQSPKLLIYWASTRESGVPDRFTGSGSGTDFTLTISSVKAEDLVVYYCQQYYNYPYTFGGGTKLEIK
# notes: Recombinant mIgG2a/kappa (also made as mIgG2a-D265A); also called BL006-4-52G6-52K7 #4; candidate NO 2
# B4: BL006-19-352G9-352K8 (antibody, V domains shown)
# VH: QVQLQQPGAELVKPGASVKLSCKASGYTFTSYWMHWVKQRPGQGLEWIGMIHPNGDITDYNEKFKSKATLAVDESSSTAFMQLNSLTSEDSAFYYCARASYYGSLYWGQGTTLTVSS
# VL: DIVMTQSQKFMSTSVGDRVSVTCKASQNVGIAVAWYQKKPGQSPKTLIYSASTRYTGVPDRFTGSGSGTDFTLTINDVQSEDLADYFCQQYGSSPLTFGAGTKLELK
# notes: Recombinant mIgG2a/kappa (also made as mIgG2a-D265A); also called candidate NO 17
# B5: BL006-19-370G9-370K16 (antibody, V domains shown)
# VH: QVQLQQSGAELGRPGTSVKMSCKAAGYTFTNYWIGWVKQRPGHGLEWIGDIYPGGGYTNYNEKFKGKATLTADTSSSTAYIQLSSLTSEDSAIYYCARSGYYDGSPLAMDYWGQGTSVTVS
# VL: QIVLTQSPTIMSASPGEKVTMTCSASSSVSYMHWYQQKSGTSPKRWIYDTSKLASGVPARFSGSGSGTSYSLTISSMEAEDAATYYCQQWSSNPPTFGSGTKLEIK
# notes: Recombinant mIgG2a/kappa (also made as mIgG2a-D265A); also called candidate NO 19
# B6: BL006-19-134G5-134K4 (antibody, V domains shown)
# VH: QVQLQQPGAELVKPGASVKLSCKASDYTFTTYWMHWVKQRPGQGLEWIGMIHPNSDTTLYNEKFRSQATLTVDKSSSTAYIQLSRLTSEDSAVYYCVVTGTNFDYWGQGTTLAVSS
# VL: QVVLTQSPAIMSASPGEKVTMTCSATSSVSYMYWYQQKPGSSPKPWIYRTSNLASGVPVRFSGSGSGTSYSLTISSMEAEDAATYYCQQWSSNPLTFGGGTKLELK
# notes: Recombinant mIgG2a/kappa (also made as mIgG2a-D265A); also called BL006-19-134G5-134K4 #2; candidate NO 7
# B7: BL006-19-363G1-363K1 (antibody, V domains shown)
# VH: B6 VH with D26G, M34I, H52L, D56G, L59I, T78A, I81M, V97A, A113T
# VL: B6 VL with V2I, T26S, S66F, S76N, G99T
# notes: Recombinant mIgG2a/kappa (also made as mIgG2a-D265A); also called candidate NO 18
# B8: BL006-4-20G5-20K5 (antibody, V domains shown)
# VH: EVQLAESGGDLVTPGGSLKLSCAASGFTFSSYGMSWVRQTPDKRLEWVATITHGGSYIYYPDSVKGRFTLSRDNAKNTLYLQMSSLKSEDTAMYYCIRHADYARFAYWGQGTLVTVSA
# VL: DIQMTQTTSSLSASLGDRVTISCRPSQDISNYLNWYQQKPDGTVKLLIYYTSRLHSGVPSRFSGSGSGTDYSLTISNLEQEDIATYFCQQGNTLPWTFGGGTKLEIK
# notes: Recombinant mIgG2a/kappa (also made as mIgG2a-D265A); also called BL006-4-20G5-20K5 #1; candidate NO 1
# Target: T1, human CD96 short isoform v2 expressed …
# Experiment: FCM on hCD96v2-CHO cells
# Description: FIG. 6: Binding profiles of anti-hCD96 antibodies on human CD96-transfected CHO cells (hCD96v2, short isoform). CHO cells expressing hCD96v2 were incubated with serial dilution of the indicated mIgG1 or mIgG2a anti-CD96 or isotype control antibodies. […] The results are expressed as the difference of mean fluorescence intensity (delta MFI) between cells stained with antibodies and cells without antibodies. Dose response curves were obtained from GraphPad prism software using a non-linear regression fit with a variable slope model (4 parameters). To simplify the reading, results from the various anti-hCD96 candidates are shown on 4 different panels.
# The capacity of the identified mouse anti-CD96 antibodies to recognize the cell membrane expressed human CD96 was further analyzed by flow cytometry (FCM) by using CHO cells stably transfected with the CD96 short isoform v2 (CD96v2; Genbank accession number NM_005816, flanked in C-terminus with HA-tag) (SEQ ID NO: 268).
# Mouse anti-CD96 antibodies and isotype control antibodies were incubated at various concentrations from 10 μg/mL to 4.6 ng/mL with CHO cells expressing human CD96 at +4° C. for 30 minutes. […] The differences between the mean fluorescence intensity (MFI) obtained for each of the antibody concentration and the intensity obtained in absence of primary antibody (delta-MFI), were calculated and plotted against the concentrations of antibodies.
EC50,Maximum binding (delta MFI),Binder
14.3 nM,42000 delta MFI,B1
4.82 nM,723000 delta MFI,B2
13.4 nM,493000 delta MFI,B3

# Target: T2, mouse CD96 expressed on CHO cells
# Experiment: FCM on CHO cells expressing mouse CD96
# Text: (§1) The capacity of the identified mouse anti-human CD96 antibodies to recognize the CD96 protein from other species was further analyzed by flow cytometry by using CHO cells expressing the mouse or the rhesus CD96. The expression of the species-specific CD96 on CHO cell surface was confirmed by using staining with appropriate anti-CD96 antibodies and flow cytometry on non-fixed cells. The rat anti-mCD96 antibody clone #630612 (R&D Systems) and the candidate BL006-9-1 (positive by ELISA on rhesus CD96) were used to confirm the expression of rhesus CD96, while the clone 6A6 (rat IgG2a, e-Bioscience) was used to verify the expression of mouse CD96.
# (§2) Mouse anti-CD96 antibodies and isotype control antibodies were incubated at 10 or 1 μg/mL with CHO cells expressing different CD96 species at +4° C. for 30 minutes.
row,binding result,Binder
1,no binding (tested: 1 and 10 µg/mL),B4
2,no binding (tested: 1 and 10 µg/mL),B2
3,no binding (tested: 1 and 10 µg/mL),B5
4,no binding (tested: 1 and 10 µg/mL),B3
5,no binding (tested: 1 and 10 µg/mL),B6
6,no binding (tested: 1 and 10 µg/mL),B7
7,no binding (tested: 1 and 10 µg/mL),B8

# Target: T1, human CD96 short isoform v2 expressed …
# Experiment: FCM, inhibition of hCD155-Fc binding to hCD96v2-CHO cells
# Description: All candidates except BL006-2-19 that bound very weakly on hCD96v2 by FCM were tested for their capacity to inhibit the binding of human CD155 to hCD96v2 stably expressed on CHO cells. Human CD96-transfected CHO cells (3×10⁵ cells/well of 96-well plate) were incubated at +4° C. for 30 minutes with serial dilutions of anti-CD96 antibodies or isotype control antibody (in mIgG2a or mIgG2aD265A format) in the presence of 4 μg/mL of biotinylated hCD155-Fc (produced and biotinylated at BliNK).
# % inhibition=(1−(MFI_wAb&CD155−MFI_CHO)/(MFI_wCD155−MFI_CHO))×100, where MFI_wAb&CD155 is the Mean Intensity Fluorescence (MFI) obtained with the hCD96-CHO cells incubated with the tested antibody and hCD155-hFc; MFI_CHO is the MFI obtained in the absence of hCD155 and mAbs; and MFI_wCD155 is the fluorescence with hCD155 but without pre-incubation with antibody (0% CD155 binding inhibition). The % of inhibition was plotted against antibody concentration and the IC50 values were calculated by using a nonlinear regression analysis model of the GraphPad Prism software.
Maximal Inhibition Capacity (%),IC50,Binder
< 5%,,B1
100%,16.8 nM,B2
< 5%,,B3

# Target: T3, rhesus CD96 transiently expressed on …
# Experiment: flow cytometry on CHO cells transiently expressing rhesus CD96; antibody at 1 (thin line) and 10 µg/ml (thick dashed line), filled grey = isotype control
# Description: FIG. 7: Binding profiles of anti-CD96 antibodies on CHO cells transfected with rhesus CD96. Anti-CD96 antibodies or the corresponding isotype control mAbs were tested for their capacity to recognize rhesus CD96 transiently expressed on CHO cells by flow cytometry. Each histogram represents the overlay of the fluorescence intensity obtained for each antibody tested at 1 (black line) and 10 μg/ml (thick dashed black line) and compared to the fluorescence obtained with an isotypic control (filled grey histogram).
# as §1, §2
row,binding result,Binder
1,binds,B4
2,binds,B2
3,no binding (tested: 10 µg/ml),B5
4,binds,B3
5,no binding (tested: 10 µg/ml),B6
6,no binding (tested: 10 µg/ml),B7
7,no binding (tested: 10 µg/ml),B8

# From patent US20230192845A1 (BLINK BIOMEDICAL, published 2023)
